Data on 2 molecules can be found in patent US20240390497A1 (Stanford University, published 2024).

One may read the EC50 (read off the curve) as the concentration at which the effect is half-maximal. A higher EC50 (read off the curve) goes with a need for much substance.

The experiment concerns the target T1, human CD93/Fc fusion protein (human, UniProt Q9NPY3 22-580, limits assumed).
T1 construct: It was biotinylated or DyLight 650-conjugated for staining; also called CD93-Fc chimera protein; CD93-Fc biotinylated protein; not shown: Fc part
T1 sequence (looked up): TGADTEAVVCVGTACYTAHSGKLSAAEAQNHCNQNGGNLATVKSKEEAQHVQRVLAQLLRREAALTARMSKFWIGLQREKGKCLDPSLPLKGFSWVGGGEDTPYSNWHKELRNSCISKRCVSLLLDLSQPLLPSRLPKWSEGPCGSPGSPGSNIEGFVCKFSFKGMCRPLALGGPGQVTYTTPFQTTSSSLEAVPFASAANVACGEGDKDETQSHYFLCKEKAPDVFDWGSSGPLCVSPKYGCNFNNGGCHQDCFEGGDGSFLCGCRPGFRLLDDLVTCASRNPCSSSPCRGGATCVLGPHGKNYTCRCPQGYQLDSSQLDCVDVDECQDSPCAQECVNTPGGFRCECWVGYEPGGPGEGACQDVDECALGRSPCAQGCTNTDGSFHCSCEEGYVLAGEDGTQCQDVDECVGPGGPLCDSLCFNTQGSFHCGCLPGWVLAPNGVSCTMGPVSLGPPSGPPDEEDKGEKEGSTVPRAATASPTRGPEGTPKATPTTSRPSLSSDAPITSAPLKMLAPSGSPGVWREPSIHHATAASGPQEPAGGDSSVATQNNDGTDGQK
Description: ELISA on coated human CD93/Fc, HRP anti-human kappa secondary, OD490. The procedure: FIGS. 2A-2O are sets of graphs illustrating that CD93-CAR T cells exert anti-leukemic effects against AML in vitro. FIG. 2A is a bar chart showing that humanized (“HuF11-G1” and “HuF11-G1 TM”) and chimeric F11 (“ChF11-G1”) monoclonal antibodies bind human CD93 with similar affinity. Human CD93/Fc fusion protein was coated in a 96-well plate and different concentrations of the antibodies as indicated were added. HRP-conjugated anti-human Kappa antibody was used as a secondary antibody. CD93 binding activity was measured by reading signals at OD490 […]. FIG. 2B is a cartoon showing the structure of CD93-28z and CD93-BBz CARs. […] Cells were fed with new media every 2-3 days, analyzed for transduction efficiency and phenotype on day 10-11, and processed for downstream experiments. FIG. 2D is a bar graph showing comparing transduction efficiency for each of aCAR molecule and control (“Mock”), measured by flow cytometry on day 10 after T cell activation. […] FIG. 2F is a set of graphs comparing expression levels of markers of T cell activation/exhaustion, including LAG-3, PD-1, TIM-3, and CD39, measured by flow cytometry on day 10 after T cell activation, prior to downstream experiments. […] FIG. 2G is a graph showing CD93 expression on AML cell lines, measured by flow cytometry after staining with biotinylated F11 antibody followed by streptavidin-APC. […]
For orientation: In an ELISA, binding on a coated surface is turned into a signal by an enzyme label.

B1: humanized F11 monoclonal antibody (HuF11-G1) (antibody, V domains shown)
VH: QVQLVQSGAEVKKPGASVKVSCKASGYTFTDYHMDWVKQAPGQGLEWIGDIDPYNGDTVFNQKFKGKATMTRDTSISTAYMELSRLRSDDTAVYYCTRGGDYWGQGTLVTVSS
VL: DIVMTQTPLSLSVTPGQPASISCRSSQTLVHSNGNTYLHWYLQKPGQPPQLLIYKVSNRFSGVPDRFSGSGSGTDFTLKISRVEAEDVGVYFCSQSTHVPFTFGQGTKLEIK
notes: also called humanized F11 antibody
B1: the “EC50 (read off the curve)” value was about 0.03 µg/mL.

B2: humanized F11 monoclonal antibody (HuF11-G1 TM) (antibody, V domains shown)
VH: QVQLVQSGAEVKKPGASVKVSCKASGYTFTDYHMDWVKQAPGQGLEWIGDIDPYNGDTVFNQKFKGKATMTRDTSISTAYMELSRLRSDDTAVYYCTRGGDYWGQGTLVTVSS
VL: DIVMTQTPLSLSVTPGQPASISCRSSQTLVHSNGNTYLHWYLQKPGQPPQLLIYKVSNRFSGVPDRFSGSGSGTDFTLKISRVEAEDVGVYFCSQSTHVPFTFGQGTKLEIK
notes: as for B1
With B2, the 50% effective concentration (EC50 (read off the curve)) is about 0.03 µg/mL.
